Data as given in article PMC9526450 (Nature structural & molecular biology, 2022).

Biological target: T1, Strep-tagged WT UBE2O from Expi293F cells (human, UniProt Q9C0C9 1-1292)
T1 sequence (looked up): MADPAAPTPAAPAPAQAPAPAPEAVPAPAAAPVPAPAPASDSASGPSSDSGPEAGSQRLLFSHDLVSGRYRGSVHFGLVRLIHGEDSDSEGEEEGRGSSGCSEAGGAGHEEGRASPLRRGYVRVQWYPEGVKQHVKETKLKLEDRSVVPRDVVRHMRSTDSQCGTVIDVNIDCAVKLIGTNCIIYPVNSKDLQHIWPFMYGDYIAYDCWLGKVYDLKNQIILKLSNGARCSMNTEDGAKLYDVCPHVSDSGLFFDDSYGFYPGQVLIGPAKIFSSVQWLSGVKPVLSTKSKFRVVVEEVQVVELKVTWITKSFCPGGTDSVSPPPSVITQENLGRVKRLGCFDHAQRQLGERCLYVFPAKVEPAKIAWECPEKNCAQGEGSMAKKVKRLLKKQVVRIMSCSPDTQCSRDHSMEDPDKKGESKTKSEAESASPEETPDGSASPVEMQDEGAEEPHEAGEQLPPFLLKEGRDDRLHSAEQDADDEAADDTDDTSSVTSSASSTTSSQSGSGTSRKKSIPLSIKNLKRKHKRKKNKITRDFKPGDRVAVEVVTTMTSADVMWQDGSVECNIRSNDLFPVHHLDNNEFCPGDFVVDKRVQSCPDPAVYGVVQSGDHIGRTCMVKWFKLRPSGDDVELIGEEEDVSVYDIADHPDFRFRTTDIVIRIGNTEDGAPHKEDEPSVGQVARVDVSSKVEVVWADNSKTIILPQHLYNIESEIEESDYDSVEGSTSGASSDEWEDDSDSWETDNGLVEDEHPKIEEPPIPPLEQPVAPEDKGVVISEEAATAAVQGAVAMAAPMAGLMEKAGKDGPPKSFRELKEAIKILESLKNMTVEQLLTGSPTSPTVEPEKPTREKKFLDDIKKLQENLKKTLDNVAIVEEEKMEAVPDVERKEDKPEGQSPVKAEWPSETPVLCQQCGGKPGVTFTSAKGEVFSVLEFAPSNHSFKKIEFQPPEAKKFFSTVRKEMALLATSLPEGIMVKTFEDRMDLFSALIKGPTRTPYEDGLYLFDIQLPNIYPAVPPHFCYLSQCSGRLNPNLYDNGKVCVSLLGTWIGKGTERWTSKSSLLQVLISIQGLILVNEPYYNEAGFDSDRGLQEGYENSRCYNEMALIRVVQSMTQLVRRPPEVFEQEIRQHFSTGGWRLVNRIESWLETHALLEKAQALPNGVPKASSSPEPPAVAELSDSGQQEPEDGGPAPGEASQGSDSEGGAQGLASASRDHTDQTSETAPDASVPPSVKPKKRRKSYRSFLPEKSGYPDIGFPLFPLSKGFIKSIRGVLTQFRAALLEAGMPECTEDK
Assay: SEC

B1: purified Strep-tagged NAP1L1 (natural protein, human, UniProt P55209 1-391, looked up)
chain: MADIDNKEQSELDQDLDDVEEVEEEETGEETKLKARQLTVQMMQNPQILAALQERLDGLVETPTGYIESLPRVVKRRVNALKNLQVKCAQIEAKFYEEVHDLERKYAVLYQPLFDKRFEIINAIYEPTEEECEWKPDEEDEISEELKEKAKIEDEKKDEEKEDPKGIPEFWLTVFKNVDLLSDMVQEHDEPILKHLKDIKVKFSDAGQPMSFVLEFHFEPNEYFTNEVLTKTYRMRSEPDDSDPFSFDGPEIMGCTGCQIDWKKGKNVTLKTIKKKQKHKGRGTVRTVTKTVSNDSFFNFFAPPEVPESGDLDDDAEAILAADFEIGHFLRERIIPRSVLYFTGEAIEDDDDDYDEEGEEADEEGEEEGDEENDPDYDPKKDQNPAECKQQ
Question: Does B1 bind?
Answer: Result: binds
